Test results reported in patent US20220204610A1, “PROTEIN BINDERS FOR IRHOM2” (NEW YORK SOCIETY FOR THE RELIEF OF THE RUPTURED AND …, priority 2019, published 2022).

Test system: human iRhom1
Experiment: Peptide binding ELISA, binding specificity (Example 10), iRhom1 peptides
Conditions: antibody 3 μg/ml PBS; peptides coated at 10 μg/ml; normalized to IgM isotype control
Protocol: Another series of peptide binding ELISA experiments was conducted to address the specificity of the purified antibody 4H8-E3 of the invention, i.e. to question whether this antibody specifically recognizes peptides, in particular peptide 3, resembling the extracellular juxtamembrane region adjacent to the TMD1 of human iRhom2, or whether the antibody 4H8-E3 of the invention also binds to peptides reflecting the homologous region of the closely related family member human iRhom1.
In brief, on day 1, Nunc black MaxiSorp® 96-well plates (Thermo Fisher Scientific, USA) were coated overnight with 100 μl per well of single biotinylated peptides 1 to 4, Mix A consisting of peptides 1 to 4, single biotinylated peptides 1b to 4b, and Mix D consisting of peptides 1b to 4b at 10 μg/m1 PBS each (thus, the final concentration of each peptide in both mixes was 2.5 μg/m1) at 4° C. On day 2, peptide solutions were removed and MaxiSorp® plates were blocked with 300 μl per well of Pierce protein-free (TBS) blocking buffer (Thermo Fisher Scientific, USA) at room temperature for 1.5 hours. […] Using an infinite M1000 PRO (Tecan Group, Switzerland) microplate reader, the fluorescence of each well was collected at an excitation wavelength of 435 nm and an emission wavelength of 555 nm.

B1: 4H8-E3: Mouse IgM monoclonal antibody against the human iRhom2 juxtamembrane domain adjacent to TMD1; HC VD SEQ ID NO 33, LC VD SEQ ID NO 40 (antibody, V domains shown)
VH: EVQLQQSGPELVKPGASVKISCKASGYTFTDYYMNWVKQSHGKSLEWIGDINPNNGGTSYNQKFKGKATLTVDKSSNTAYMEFRSLTSEDSAVYYCARRGYYGVDYWGQGTTLTVSS
VL: NIVMTQSPKSMSMSVGERVTLNCKASENVGTYVSWYQQKPEQSPKLLIFGASNRYTGVPDRFIGSGFATDFTLTISSVQAEDLADYHCGQSYSYPYTFGGGTKLEIK
modifications: IgM constant regions; antibody sequence
In the case of B1, the “binding to Mix D or individually coated peptides 1b, 2b, 3b and 4b (homologous sequences of human iRhom1)” value is reported as “does not bind at all”.
